According to the supplement of paper PMC10567573:
± gives the standard deviation.

Assay: protein stability index of a GFP-peptide fusion (GPS, HEK-293T) (PSI 1-6); higher = more stable
[1] = treatment: DMSO, c terminus: a fixed tail appended
[2] = treatment: MLN4924 1 uM, 8 h, c terminus: a fixed tail appended
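Note: 24-mer peptide tiles fused after GFP, lentivirally expressed, FACS-sorted into six equal bins by GFP/DsRed ratio, decoded by Illumina sequencing, PSI is the read-weighted mean bin number.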

Row | Sequence | protein stability index [1] | protein stability index [2] | protein stability index (treatment: DMSO, c terminus: native) | protein stability index (treatment: MLN4924 1 uM, 8 h, c terminus: native)
1 | SEEQFRQRSPLGGDVLHAHLDIWK [SPDEF] | 3.34 ± 0.36 | 3.27 ± 0.1 | – | –
2 | RRKRTYWNDSCGEDMEASDYELED [WEE1] | 4.37 ± 0.3 | 4.92 ± 0.27 | – | –
3 | RGEVPWSPELGRPHDRSQGDWAPP [ZNF263] | 4 ± 0.19 | 4.12 ± 0.35 | – | –
4 | RMRYEGVVDIFQTVKMLRTQRPAM [PTPRD] | 2.18 ± 0.18 | 2.38 ± 0.29 | – | –
5 | PIIVVPDPPSSSEECPAHLLEDPL [RHOBTB2] | 5.2 ± 0.1 | 4.81 ± 0.3 | – | –
6 | EPSRSASEADSEAGELRKPTQEEW [PPEF2] | 5.68 ± 0.33 | 5.81 ± 0.16 | – | –
7 | NRDSYFYAAIVAVVAVHVVLALFV [VMA21] | 2.3 ± 0.16 | 2 ± 0.2 | – | –
8 | RRGIGGIFFDDLDSPSKEEVFRFV [CPOX] | 2.28 ± 0.2 | 2.64 ± 0.27 | – | –
9 | ALRPTAFSGCLNCSKVSELTERLK [EMID1] | 2.74 ± 0.37 | 2.97 ± 0.47 | – | –
10 | DCARRILAREGVAAFYKGYVPNML [SLC25A25] | 2.12 ± 0.11 | 2.11 ± 0.29 | – | –
11 | VHETPAASKTVFFFFSSPGNNNGT [BTBD1] | 2.37 ± 0.3 | 2.15 ± 0.31 | – | –
12 | TNGSFSPSGNNGSVNWRTGSFHGP [DLC1] | 3.09 ± 0.3 | 3.11 ± 0.23 | – | –
13 | SSKVSGVLKKLAQSRRTALATSPI [YJU2B] | 2.94 ± 0.22 | 3 ± 0.26 | – | –
14 | GRQPALRPHVHKQTEKTTRVRTVL [ISL2] | 3.66 ± 0.1 | 3.88 ± 0.17 | – | –
15 | TNGELNTDDPTAGRSNAPITAPTE [CSNK1G3] | 5.41 ± 0.15 | 5.41 ± 0.16 | – | –
16 | DVTLEASRESSKPRAVLKPRRVCV [PPP2R2C] | 3.68 ± 0.1 | 3.78 ± 0.21 | – | –
17 | VDQMNRIVEVLGIPPAAMLDQAPK [DYRK1B] | 3.62 ± 0.25 | 3.52 ± 0.15 | – | –
18 | ESHKAKNESWIKSHFSRLSEEKLA [C10orf62] | 3.81 ± 0.17 | 3.86 ± 0.35 | – | –
19 | WVSHTAAMTGTFPAYGMSPSLSTI [DVL3] | 2.62 ± 0.34 | 2.29 ± 0.26 | – | –
20 | EDQYQFSYRAALEYLGSFDHYAT [PTPRD] | – | – | 2.61 ± 0.49 | 2.69 ± 0.34
21 | PSPQLDTQQEIKLCQKSNDISIHH [WDR41] | 4.41 ± 0.51 | 4.49 ± 0.05 | – | –
22 | ELFDKLSLRFNGRVLFIKDVIGDE [KCTD10] | 2.08 ± 0.22 | 2.82 ± 0.59 | – | –

Row | Sequence | protein stability index [1] | protein stability index [2] | protein stability index (treatment: DMSO, c terminus: native) | protein stability index (treatment: MLN4924 1 uM, 8 h, c terminus: native)
23 | TYGWTANMERIMKAQALRDNSTMG [HSP90AB1] | 2.87 ± 0.24 | 3.31 ± 0.3 | – | –
24 | RVLMYGSELDADHPGFKDNVYRKR [TPH1] | 3.59 ± 0.11 | 3.8 ± 0.29 | – | –
25 | GQRIRRGSIGVWHYICPRLGGIGF [SLC6A17] | 2.23 ± 0.27 | 2.42 ± 0.2 | – | –
26 | DQYSYSSLVMGSQTESALSKKLRA [LCOR] | 3.63 ± 0.12 | 3.54 ± 0.27 | – | –
27 | HHHHGRDFLLRAASFDVCESVDEA [RHOBTB2] | 4.04 ± 0.38 | 4.25 ± 0.27 | – | –
28 | LWDTSGQGRFCTIFRSYSRGAQGI [RAB40C] | 2.39 ± 0.41 | 2.31 ± 0.37 | – | –
29 | NGSLYGQASSERLGLDNRLFGHPG [ADAMTSL2] | 3.17 ± 0.53 | 3.46 ± 0.25 | – | –
30 | GQREPGSLSRNNSFRRNVGRVLLA [FBXO34] | 3.11 ± 0.26 | 3.46 ± 0.21 | – | –
31 | GWCSGDAISSVERYDPQTNEWRMV [KLHL20] | 2.84 ± 0.24 | 2.95 ± 0.34 | – | –
32 | ESNVSMASLGEKRDHHSTHYRASE [CHGB] | 4.71 ± 0.27 | 4.79 ± 0.33 | – | –
33 | ATGDYLFEPHSGEDYSRDEDHIAH [SRPK2] | 5.23 ± 0.2 | 5.28 ± 0.27 | – | –
34 | SFLEQIMAPLQPSTSRAHKLPSRR [FAM189A2] | 2.8 ± 0.4 | 3.1 ± 0.3 | – | –
35 | APGVLTNKRKTYTESYIARPDGDC [ZC2HC1A] | 4.27 ± 0.12 | 4.29 ± 0.3 | – | –
36 | DSGQYWPSIYHTMASPCSAMAYHH [WDFY1] | 2.34 ± 0.2 | 2.38 ± 0.13 | – | –
37 | TLPTLPAKVYVGVKQEIAEMRIPA [NCF4] | 3.36 ± 0.34 | 3.7 ± 0.39 | – | –
38 | RQETVDCLKKFNARRKLKGAILTT [CAMK2A] | 3.15 ± 0.26 | 3.33 ± 0.24 | – | –
39 | FPSDHLGDLGDPFHLGLEDILMEE [TFE3] | 3.82 ± 0.19 | 4.04 ± 0.4 | – | –
40 | QVNEINFENMSNDDAVRVLREIVH [DVL3] | 3.01 ± 0.16 | 3.09 ± 0.37 | – | –
41 | GVLTRKTHADMDGKRTPRGRRGWK [PSD2] | 4.47 ± 0.29 | 4.53 ± 0.29 | – | –
42 | NVISELNIEDYFSHHLAVYNSPQF [FBXO39] | 2.31 ± 0.29 | 2.32 ± 0.34 | – | –
43 | LLRDHIPRGKEELESLGGGKTPPG [MOG] | 4.89 ± 0.18 | 4.81 ± 0.37 | – | –
44 | FLNFNGMKLFLDCLKEFPEKQELH [ZER1] | 2.29 ± 0.18 | 2.42 ± 0.18 | – | –
